Experiments:
[1] = target: T1, celiac disease relevant peptide PQQPQQSFPQQQPPF
T1 chain: PQQPQQSFPQQQPPF

[2] = target: T2, celiac disease relevant peptide LGQQQPFPPQQPYPQPQPF
T2 chain: LGQQQPFPPQQPYPQPQPF

[3] = target: T3, celiac disease relevant peptide QLPQQPQQF
T3 chain: QLPQQPQQF

Measured: degradation of peptide analyzed by reverse phase liquid chromatography (50 µg/mL peptide, 25 µg/mL enzyme, 37 °C, pH 4.5, 1 hr)

B1: XP-972061 (proline specific protease, LOC660762, similar to prolylcarboxypeptidase / thymus-specific serine protease) (protein)
chain: RIFRNGRMVGGNLGEPKCNCKESSIKEVQEEWFTQNLDHFNPTDETTWKQRFYSNDQFFDPKNGGPVFLMIGGEGEASIKWMTQGAWVNYAEKFGALMFQLEHRYYGKSHPTDDLSTQNLKYLTSQQALADLATFITAMNEKYSLPPDVKWIAFGGSYPGSLAAWLRFKYPHLVHGAMSASGPLLAQVDFKDYFRVIKESLATHSDDCVTAVQQGVDQIGVLLKQEIGQANLNELFKLCDPVQNSINNEKDISNLYETIADDFAGVVQYNKDNRVGSPAGANITIDVVCDIMVNQTIGPPVNRLAKVNEVLLSAYDQKCLDYNYDKMINNLRNVSWDSEASEGGRQWTYQTCTEFGFYQTSDYEPQIFGDQFSVDFFIQQCTDIFGSIYDEDFLNSATERTNTYYGGLDIEVSNVVFVHGSIDPWHALGITKTIDEEAPAIYIEGTAHCANMYPPADTDLPQLKEAREQILNLIGTWLAQ
completely proteolyzed: [1] | [2] | [3]

— patent US20130045195
